Test results: patent publication US20260125446A1 (Eli Lilly, published 2026)
Positions count from the first letter of the chain named. In names and notes the source's numbering stands. Ends that are not written are not given here.

T1: human RXFP1 receptor (human, UniProt Q9HBX9 1-757)
T1 sequence: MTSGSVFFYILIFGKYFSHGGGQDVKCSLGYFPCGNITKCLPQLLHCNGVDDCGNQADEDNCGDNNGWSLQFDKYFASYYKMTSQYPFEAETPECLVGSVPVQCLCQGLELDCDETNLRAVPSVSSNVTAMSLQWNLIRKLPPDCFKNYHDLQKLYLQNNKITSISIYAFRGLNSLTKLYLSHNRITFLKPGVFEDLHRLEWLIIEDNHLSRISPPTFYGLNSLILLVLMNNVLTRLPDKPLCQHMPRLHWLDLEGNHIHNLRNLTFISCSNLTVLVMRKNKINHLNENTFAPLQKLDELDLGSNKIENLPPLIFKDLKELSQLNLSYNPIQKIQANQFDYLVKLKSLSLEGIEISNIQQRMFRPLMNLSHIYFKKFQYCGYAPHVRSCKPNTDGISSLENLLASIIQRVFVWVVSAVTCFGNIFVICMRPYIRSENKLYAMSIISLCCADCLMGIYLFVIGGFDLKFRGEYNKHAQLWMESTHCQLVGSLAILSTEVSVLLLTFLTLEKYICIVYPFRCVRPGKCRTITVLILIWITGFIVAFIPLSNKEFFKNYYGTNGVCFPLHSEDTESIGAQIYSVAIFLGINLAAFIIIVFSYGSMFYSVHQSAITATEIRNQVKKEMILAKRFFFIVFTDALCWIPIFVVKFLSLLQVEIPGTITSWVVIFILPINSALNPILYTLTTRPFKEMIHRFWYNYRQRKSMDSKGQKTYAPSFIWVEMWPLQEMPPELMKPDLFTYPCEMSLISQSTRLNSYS

B1: RLN Analog 2 (other)
chain: EVQLLESGGGLVQPGGSLRLSCAASGRYIDETAVAWFRQAPGKEREFVAGIGGGVDITYYADSVKGRFTISRDNSKNTLYLQMNSLRPEDTAVYYCAARPGRPLITSKVADLYPYWGQGTLVTVSSPGPAPGPAPGPAPGPAPGPAPGPAPGPAPGPAQLYSALANKCCHVGCTKRSLARFCGGGSGGSGGGSWMEEVIKLCGRELVRAQIAICGMSTWS
notes: Single-chain fusion: VHH - (PGPA)8 L1 - RLN2 A chain - L2 - RLN2 B chain (desB1)
B2: RLN Analog 6 (other)
chain: SWMEEVIKLCGRELVRAQIAICGMSTWSGGGSGGSGGGQLYSALANKCCHVGCTKRSLARFCPGPQPGPQPGPQPGPQPGPQPGPQPGPQPGPQEVQLLESGGGLVQPGGSLRLSCAASGRYIDETAVAWFRQAPGKEREFVAGIGGGVDITYYADSVKGRFTISRDNSKNTLYLQMNSLRPEDTAVYYCAARPGRPLITSKVADLYPYWGQGTLVTVSSPP
notes: Single-chain fusion: RLN2 B chain (desB1) - L2 - RLN2 A chain - PGPQ-repeat L1 - VHH (C-terminal)
B3: RLN Analog 5 (other)
chain: SWMEEVIKLCGRELVRAQIAICGMSTWSGGGSGGSGGGQLYSALANKCCHVGCTKRSLARFCGGGGQGGGGQGGGGQGGGGQGGGGQEVQLLESGGGLVQPGGSLRLSCAASGRYIDETAVAWFRQAPGKEREFVAGIGGGVDITYYADSVKGRFTISRDNSKNTLYLQMNSLRPEDTAVYYCAARPGRPLITSKVADLYPYWGQGTLVTVSSPP
notes: Single-chain fusion: RLN2 B chain (desB1) - L2 - RLN2 A chain - (G4Q)5 L1 - VHH (C-terminal)
B4: RLN Analog 9 (other)
chain: B3 chain with E131G
notes: as for B3
B5: RLN Analog 1 (other)
chain: EVQLLESGGGLVQPGGSLRLSCAASGRYIDETAVAWFRQAPGKEREFVAGIGGGVDITYYADSVKGRFTISRDNSKNTLYLQMNSLRPEDTAVYYCAARPGRPLITSKVADLYPYWGQGTLVTVSSGGGGQGGGGQGGGGQGGGGQGGGGQQLYSALANKCCHVGCTKRSLARFCGGGSGGSGGGSWMEEVIKLCGRELVRAQIAICGMSTWS
B6: native, human RLN2 (ligand)
chain 1: QLYSALANKCCHVGCTKRSLARFC
chain 2: DSWMEEVIKLCGRELVRAQIAICGMSTWS
modifications: disulfide (positions not given here); not fully specified (bridges); ends not checked; also: two interchain and one intra-A-chain disulfide, pairing not given here

Target: T2, rabbit serum albumin (rabbit, UniProt P49065 25-608)
T2 construct: Bought protein, immobilized on a CM5 chip by amine coupling; also called Rabbit SA
Experiment: SPR (Biacore 8K), albumin immobilized on CM5 chip, 25 C
Description: (§1) The immobilization of the serum albumin to a Series S Sensor Chip CM5 surface is performed according to the manufacturer's instructions (Amine Coupling Kit BR-1000-50). Briefly, carboxyl groups on the sensor chip surfaces (flow cell 1 and 2) are activated by injecting 70 μL of a mixture containing 75 mg/mL EDC and 11.5 mg/mL NHS at 10 μL/min. Human, cynomolgus monkey, mouse, rat, pig, dog, cow and rabbit serum albumin are diluted in 10 mM sodium acetate pH 4.0 (BR-1003-49) at […] and then injected over the activated chip surfaces (flow cell 2, channel 1 to 8) at 10 μL/min for 180 sec (human, mouse, rat, pig and cow serum albumin are obtained from Sigma Aldrich (St. Louis, MO); cynomolgus monkey serum albumin is obtained from Hölzel Diagnostika (Cologne, Germany); dog serum albumin is obtained from Molecular Innovations (Novi, MI); and rabbit serum albumin is obtained from Fitzgerald Industries Intl. (Acton, MA). The various serum albumins are covalently immobilized through free amines onto a carboxymethyl dextran-coated sensor chip CM5 targeting a surface density of about 100 (62-145) RU. Excess reactive groups on the surfaces (flow cell 1 and 2) are deactivated by injecting 70 μL of 1 M ETA HCl—NaOH pH 8.5.
(§2) 150 μl of sample is individually injecting sequentially across the immobilized serum albumins on the chip's surface and dissociating for 600 sec at 50 μL/min flow rate at 25° C. The surface is regenerated by injecting 10 mM glycine-HCl pH 1.5 (BR-1003-54) at 50 μL/min for 100 sec. The resulting sensorgrams are analyzed using Biacore 8K Insight Evaluation Software (version 2.0.15.12933) 1:1 binding kinetics model fitting to calculate the binding kinetic parameter association rate (ka), dissociation rate (kd), and equilibrium dissociation constant (KD).

| Binder | binding result |
| --- | --- |
| B1 | no binding (tested: 1000 nM (highest concentration tested)) |
| B2 | no binding (tested: 1000 nM (highest concentration tested)) |
| B3 | no binding (tested: 1000 nM (highest concentration tested)) |
| B4 | no binding (tested: 1000 nM (highest concentration tested)) |
| B5 | no binding (tested: 1000 nM (highest concentration tested)) |

Target: T1, human RXFP1 receptor
Experiment: cell-based or functional assay

| Binder | hRXFP1 EC50 nM GeoMean (cAMP CRE luciferase reporter assay, CHO cells expressing human RXFP1) [nM] |
| --- | --- |
| B2 | 15 |
| B6 | 0.15 |
| B3 | 8.1 |
| B4 | 5.2 |

Target: human RXFP2 receptor (human, UniProt Q8WXD0 1-754)
Experiment: cell-based or functional assay

| Binder | hRXFP2 EC50 nM GeoMean (cAMP CRE luciferase reporter assay, CHO cells expressing human RXFP2) [nM] |
| --- | --- |
| B2 | 39 |
| B6 | 1.7 |
| B3 | 98 |
| B4 | 97 |

Target: T3, cow serum albumin (cow, UniProt P02769 25-607)
T3 construct: Bought protein, immobilized on a CM5 chip by amine coupling; also called Cow SA
Experiment: SPR (Biacore 8K), albumin immobilized on CM5 chip, 25 C, steady state
Description: as §1
150 μl of sample is individually injecting sequentially across the immobilized serum albumins on the chip's surface and dissociating for 600 sec at 50 μL/min flow rate at 25° C. The surface is regenerated by injecting 10 mM glycine-HCl pH 1.5 (BR-1003-54) at 50 μL/min for 100 sec. The resulting sensorgrams are analyzed using Biacore 8K Insight Evaluation Software ([…]).

| Binder | Kd [nM] |
| --- | --- |
| B2 | 130 |
| B3 | 120 |
| B4 | 84 |

Target: T3, cow serum albumin
Experiment: SPR (Biacore 8K), albumin immobilized on CM5 chip, 25 C, 1:1 kinetic fit
Description: as §1, §2

| Binder | Kd [nM] | koff [s⁻¹] | kon [M⁻¹ s⁻¹] |
| --- | --- | --- | --- |
| B1 | 50 | 0.049 | 980000 |
| B5 | 37 | 0.05 | 1.4e+06 |

Target: T4, pig serum albumin (pig, UniProt P08835 25-607)
T4 construct: Bought protein, immobilized on a CM5 chip by amine coupling; also called Pig SA
Experiment: as above
Description: as §1, §2

| Binder | Kd [nM] | koff [s⁻¹] | kon [M⁻¹ s⁻¹] |
| --- | --- | --- | --- |
| B1 | 8 | 0.0056 | 690000 |
| B2 | 24 | 0.0099 | 410000 |
| B3 | 23 | 0.013 | 580000 |
| B4 | 14 | 0.012 | 870000 |
| B5 | 7.1 | 0.0055 | 780000 |

Target: T5, dog serum albumin (dog, UniProt P49822 25-608)
T5 construct: Bought protein, immobilized on a CM5 chip by amine coupling; also called Dog SA
Experiment: as above
Description: as §1, §2

| Binder | Kd [nM] | koff [s⁻¹] | kon [M⁻¹ s⁻¹] |
| --- | --- | --- | --- |
| B1 | 1.4 | 0.0015 | 1e+06 |
| B2 | 4.1 | 0.002 | 480000 |
| B3 | 4.7 | 0.0034 | 710000 |
| B4 | 3.8 | 0.0036 | 950000 |
| B5 | 1.2 | 0.0015 | 1.3e+06 |

Target: T6, rat serum albumin (rat, UniProt P02770 25-608)
T6 construct: Bought protein, immobilized on a CM5 chip by amine coupling; also called Rat SA
Experiment: as above
Description: as §1, §2

| Binder | Kd [nM] | koff [s⁻¹] | kon [M⁻¹ s⁻¹] |
| --- | --- | --- | --- |
| B1 | 3 | 0.0029 | 980000 |
| B2 | 9.7 | 0.0048 | 490000 |
| B3 | 10 | 0.0072 | 700000 |
| B4 | 8.2 | 0.0075 | 910000 |
| B5 | 2.1 | 0.0026 | 1.2e+06 |

Target: T7, cynomolgus monkey serum albumin (cynomolgus monkey, UniProt A2V9Z4 25-608)
T7 construct: Bought protein, immobilized on a CM5 chip by amine coupling; also called Cyno SA
Experiment: as above
Description: as §1, §2

| Binder | Kd [nM] | koff [s⁻¹] | kon [M⁻¹ s⁻¹] |
| --- | --- | --- | --- |
| B1 | 0.45 | 0.00052 | 1.2e+06 |
| B2 | 2.3 | 0.001 | 430000 |
| B3 | 1.8 | 0.0015 | 820000 |
| B4 | 0.86 | 0.00094 | 1.1e+06 |
| B5 | 0.5 | 0.00053 | 1.1e+06 |

Target: T8, mouse serum albumin (mouse, UniProt P07724 25-608)
T8 construct: Bought protein, immobilized on a CM5 chip by amine coupling; also called Mouse SA
Experiment: as above
Description: as §1, §2

| Binder | Kd [nM] | koff [s⁻¹] | kon [M⁻¹ s⁻¹] |
| --- | --- | --- | --- |
| B1 | 3.8 | 0.0042 | 1.1e+06 |
| B2 | 12 | 0.0076 | 630000 |
| B3 | 14 | 0.0083 | 590000 |
| B4 | 9.5 | 0.011 | 1.2e+06 |
| B5 | 3.3 | 0.0042 | 1.3e+06 |

Target: T9, human serum albumin (human, UniProt P02768 25-609)
T9 construct: Bought protein, immobilized on a CM5 chip by amine coupling; also called Human SA
Experiment: as above
Description: as §1, §2

| Binder | Kd [nM] | koff [s⁻¹] | kon [M⁻¹ s⁻¹] |
| --- | --- | --- | --- |
| B1 | 0.1 | 9.5e-05 | 920000 |
| B2 | 0.51 | 0.00024 | 470000 |
| B3 | 0.45 | 0.00026 | 580000 |
| B4 | 0.19 | 0.00018 | 950000 |
| B5 | 0.11 | 0.00011 | 980000 |
